This series addresses T1, SATB1 80 kDa deltaSATB1 (bacterially produced) (Homo sapiens) (UniProt Q01826).
T1 sequence: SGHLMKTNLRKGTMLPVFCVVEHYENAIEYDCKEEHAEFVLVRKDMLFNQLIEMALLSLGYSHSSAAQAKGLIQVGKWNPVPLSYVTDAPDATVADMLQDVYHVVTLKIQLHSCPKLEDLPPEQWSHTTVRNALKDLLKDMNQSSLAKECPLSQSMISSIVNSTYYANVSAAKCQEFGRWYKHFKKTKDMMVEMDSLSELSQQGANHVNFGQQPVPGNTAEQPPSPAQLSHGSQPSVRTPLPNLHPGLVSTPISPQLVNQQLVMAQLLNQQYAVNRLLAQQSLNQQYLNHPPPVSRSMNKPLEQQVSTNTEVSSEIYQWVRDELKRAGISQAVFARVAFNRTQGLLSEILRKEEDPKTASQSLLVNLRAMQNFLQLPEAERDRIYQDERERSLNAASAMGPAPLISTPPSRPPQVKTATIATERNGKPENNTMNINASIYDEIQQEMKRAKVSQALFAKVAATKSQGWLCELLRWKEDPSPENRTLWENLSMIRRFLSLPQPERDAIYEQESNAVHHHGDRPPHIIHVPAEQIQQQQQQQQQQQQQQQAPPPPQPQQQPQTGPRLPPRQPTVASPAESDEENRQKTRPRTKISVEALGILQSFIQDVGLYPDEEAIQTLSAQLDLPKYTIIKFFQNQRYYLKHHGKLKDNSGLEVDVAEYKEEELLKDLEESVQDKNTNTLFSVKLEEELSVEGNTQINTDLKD
The series can be described thus: EMSA. (In EMSA bound probe runs differently from free probe, usually more slowly.)

For “TCTTTAATTTCTAATATATTTAGAATTC (double strand) [wild-type (25)2]”, the off-rate constant (koff) (commonly the rate constant with which the complex falls apart) stood at 0.0167 s⁻¹.

Source of the values: US5652340.
